# Assay results taken from patent US20260176336A1 (MESTAG THERAPEUTICS, published 2026).
# Substitutions are numbered along the chain they refer to.
# B1: Clone 4.16 (bispecific antibody)
# heavy 1: not shown
# heavy 2: QVQLVQSGTEVKKPGASVKVSCKASGYTFTGYYMNWVRQAPGQGLEWVGWINPNSGDTNFAQKFQGRVTMTRDSSISTAYMELSRLRSDDTAVYYCARQFRGYSYGYGMDVWGKGTTVTVSSASTKGPSVFPLAPSSKSTSGGTAALGCLVKDYFPEPVTVSWNSGALTSGVHTFPAVLQSSGLYSLSSVVTVPSSSLGTQTYICNVNHKPSNTKVDKKVEPKSCDKTHTCPPCPAPEAAGGPSVFLFPPKPKDTLMISRTPEVTCVVVDVSHEDPEVKFNWYVDGVEVHNAKTKPREEQYNSTYRVVSVLTVLHQDWLNGKEYKCKVSNKALPAPIEKTISKAKGQPREPQVCTLPPSRDELTKNQVSLSCAVKGFYPSDIAVEWESNGQPENNYKTTPPVLDSDGSFFLVSKLTVDKSRWQQGNVFSCSVMHEALHNHYTQKSLSLSPG
# light: not shown
# B2: Clone 4.17 (bispecific antibody)
# heavy 1: not shown
# heavy 2: QLQLQESGPGLVKPSETLSLTCTVSGGSISSSTYYWGWIRQPPGKGLEWIGSIFYSGNTYYNPSLKSRVTISVDTSKNQFSLRLNSVTAADTAVYYCAREIIEPRPGYFDYWGQGTLVTVSSASTKGPSVFPLAPSSKSTSGGTAALGCLVKDYFPEPVTVSWNSGALTSGVHTFPAVLQSSGLYSLSSVVTVPSSSLGTQTYICNVNHKPSNTKVDKKVEPKSCDKTHTCPPCPAPEAAGGPSVFLFPPKPKDTLMISRTPEVTCVVVDVSHEDPEVKFNWYVDGVEVHNAKTKPREEQYNSTYRVVSVLTVLHQDWLNGKEYKCKVSNKALPAPIEKTISKAKGQPREPQVCTLPPSRDELTKNQVSLSCAVKGFYPSDIAVEWESNGQPENNYKTTPPVLDSDGSFFLVSKLTVDKSRWQQGNVFSCSVMHEALHNHYTQKSLSLSPG
# light: not shown
# B3: Clone 4.18 (bispecific antibody)
# heavy 1: not shown
# heavy 2: B2 heavy 2
# light: not shown
# B4: Clone 3.2 (antibody, V domains shown)
# VH: QVQLVQSGAEVKKPGASVKVSCKASGYTFTGYYMHWVRQAPGQGLEWMGWIYPNTGGTNYAQNFQGRVTMTRDTSISTAYMELSSLRSDDTAVYYCARDDYNKNLDYWGQGTLVTVSS
# VL: DIQMTQSPSTLSASVGDRGTITCRASQSIGSWLAWYQQKPGKTPKLLIYKASSLESGVPSRFSGSGSGTEFTLTISSLQPDDFATYYCQQYNSYFRTFGQGTKVEIK
# notes: anti-FAP mAb (bivalent)
# B5: Clone 3.4 (antibody, V domains shown)
# VH: EVQLVESGGGLVKPGGSLRLSCVASGFTFSLAWMNWVRQAPGKGLEWVGHIKSRADGGSTDYAAPVKGRFTISRDDSKNTLYLHMNSLKTEDTAVYFCSRFYWNYVLDYWGQGTLVTVSS
# VL: DIQMTQSPSSLSASVGDRVTITCRASQSINSYFNWYQQKPGKAPKLLIYAASGLQSGVPSRFSGSGSGTDFTLTISSLQPEDFATYYCQQSYSPPYTFGQGTNLEIK
# notes: anti-FAP mAb (bivalent)
# B6: Clone 3.1 (antibody, V domains shown)
# VH: QLQLQESGPGLVKPSETLSLTCTVSGGSISSSTYYWGWIRQPPGKGLEWIGSIFYSGNTYYNPSLKSRVTISVDTSKNQFSLRLNSVTAADTAVYYCAREIIEPRPGYFDYWGQGTLVTVSS
# VL: B5 VL with N30S, S31K, F33L, L46F, G53S, Y92N, P94I, Y96R, N103K, L104V
# notes: anti-FAP mAb (bivalent)
# B7: Clone 3.3 (antibody, V domains shown)
# VH: QVQLVQSGTEVKKPGASVKVSCKASGYTFTGYYMNWVRQAPGQGLEWVGWINPNSGDTNFAQKFQGRVTMTRDSSISTAYMELSRLRSDDTAVYYCARQFRGYSYGYGMDVWGKGTTVTVSS
# VL: DIQMTQSPSSLSASVGDRVTITCRASQNIGSYLNWYQQKPGKAPKLLIYAASSLQSGVPSRFSGSGSGTDFTLTISSLQPEDFATYYCQQANSFPFTFGPGTKVDIK
# notes: anti-FAP mAb (bivalent)
# B8: Clone 1.3 (VHH, not shown: small tags and cut ends)
# VHH: EVQLVESGGGLVQPGGSLRLSCAASGRTFTNYRMAWFRQAPGKEREAVAAINWNGGGTYYADSVKGRFTISRDNAKNTVYLQMNSLRPEDTAVYYCAADSTGWGSYFDYWGQGTLVTVSS
# notes: monovalent anti-LTBR VHH; also called 1.3 (parental clone for 1.8)
# B9: Clone 1.2 (VHH, not shown: small tags and cut ends)
# VHH: EVQLVESGGGLVQPGGSLRLSCAASGSSIFSFEIMAWYRQAPGKQRELVAVINKGGEANYPDSVEGRFTISRDNAKNTVYLQMNSLRPEDTAVYYCNADAVPHGSYWGQGTLVTVSS
# notes: monovalent anti-LTBR VHH; also called 1.2 (parental clone for 1.5)
# B10: Clone 1.1 (VHH, not shown: small tags and cut ends)
# VHH: EVQLVESGGGLVQPGGSLRLSCAASGRFFGIYDMYWYRQPPGKQRELVAISTSGGHTNYADSVKGRFTISRDNAKNTVYLQMNSLRPEDTAVYYCNIQRVDAPGMYWGQGTLVTV
# notes: monovalent anti-LTBR VHH; also called 1.1 (parental clone for 1.7)
# B11: Clone 1.4 (VHH, not shown: small tags and cut ends)
# VHH: EVQLVESGGGLVQPGGSLRLSCKASGTTFSDRAFGWYRQAPGKQRELVATISTAGLTWYDVSVKGRFIISRDNPENTVYLQMNSLRPEDTAVYYCNTFRGNWGQGTLVTVSS
# notes: monovalent anti-LTBR VHH; also called 1.4 (parental clone for 1.6)
# Biological target: T1, human LTBR endogenously expressed on cells (HepG2, A549, A375, HCC1187, RPMI-7951, primary human breast CAFs) (human, UniProt P36941 31-435)
# Assay: cell-based or functional assay
# T1 sequence (P36941 31-435): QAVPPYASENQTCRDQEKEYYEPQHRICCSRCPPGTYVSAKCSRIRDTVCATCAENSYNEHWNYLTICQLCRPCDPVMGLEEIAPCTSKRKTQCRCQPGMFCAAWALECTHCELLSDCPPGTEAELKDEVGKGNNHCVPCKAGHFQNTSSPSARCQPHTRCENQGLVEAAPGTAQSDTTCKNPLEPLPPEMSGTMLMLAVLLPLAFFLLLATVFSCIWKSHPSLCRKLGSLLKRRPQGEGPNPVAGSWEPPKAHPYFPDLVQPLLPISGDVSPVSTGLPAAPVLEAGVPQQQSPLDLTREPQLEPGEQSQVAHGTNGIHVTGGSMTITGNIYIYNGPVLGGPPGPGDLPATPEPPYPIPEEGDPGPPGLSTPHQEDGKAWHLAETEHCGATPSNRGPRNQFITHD
row,Binder,"HepG2 Reporter assay, HepG2:FAP-CHO-K1 Co-culture EC50 [pM]"
1,B1,16
2,B2,17
3,B3,23

# Biological target: T1, human LTBR endogenously expressed on …
# Assay: cell-based or functional assay
# Remark: another data set of the same source
row,Binder,"CCL19 upregulation, HCC1187:CAF Co-culture EC50 [pM]"
1,B1,90
2,B2,60
3,B3,120

# Biological target: T1, human LTBR endogenously expressed on …
# Assay: cell-based or functional assay
# Remark: another data set of the same source
row,Binder,chemokine (CCL5) induction in RPMI-7951 EC50 [pM]
1,B1,7.8
2,B2,10
3,B3,67

# Biological target: T2, human FAP expressed on cells (transfected HEK293; FAP-CHO-K1 recombinant cell line, BPS cat no. 79947) (human, UniProt Q12884 1-760)
# T2 construct: also called HuFAP-HEK293; Hek-FAP
# Assay: flow cytometry, HEK293-FAP overexpressing cells
row,Binder,EC50 [nM]
1,B1,0.4
2,B2,0.8
3,B3,1

# Biological target: T2, human FAP expressed on cells …
# Assay: flow cytometry, human FAP-transfected HEK293 cells
# Method: The binding of antibodies to human FAP expressed on transfected HEK293 cells was measured by FACS. In addition, binding to parental HEK293 was tested to confirm antibody specificity. In short, the cells were resuspended in the FACS binding buffer and live/dead efluro450 viability dye was added at a 1:1000 dilution to the cell suspension, followed by incubation at room temperature in the dark for 30 minutes. The cells were then diluted to 2 e5/ml, and 100 ul was added to wells of a 96-well U-bottom plate as required. […] The cells were pelleted by centrifugation, and the supernatant was discarded, followed by the addition of a series of dilutions of anti-FAP antibodies and incubation for 45 minutes at 4° C. in the dark. Cells were washed two times with PBS with 3% (w/v) BSA before adding 60 ul of fluorescently labelled secondary antibody (goat anti-human IgG) diluted to 1:200 in PBS. Incubation continued at 4 C for at least 30 minutes, followed by two washes in PBS pH 7.4. Cells were either fixed with 2% PFA (30 minutes at 4° C.) followed by washout and storage in 100 ul of PBS or immediately analysed on a Flow Cytometer. The data was analysed using FloJo V10 and GraphPad Prism. No binding to the HEK parental cell line was detected for any tested clones, confirming the specific interaction between anti-FAP antibodies and the FAP receptor. The results are summarised in.
row,Binder,EC50 [nM]
1,B4,0.7
2,B5,1.1
3,B6,1.7
4,B7,0.6

# Biological target: T1, human LTBR endogenously expressed on …
# Assay: flow cytometry, HepG2 cells, VHH detected by anti-FLAG
# Method: The purified proteins were tested for binding to endogenously expressed human LTBR in HepG2 cells. The expression level was confirmed with anti-LTBR clone CBE-11 (“huCBE11” as disclosed in WO2004002431). The HepG2 cells were resuspended to a final concentration of 1.0×10⁶ cells/ml in FACS buffer. A series dilution of purified VHHs was incubated with mouse anti-FLAG biotinylated antibody (Sigma Aldrich, cat. #F9291-1MG) at 5 μg/ml in FACS buffer for 30 min at RT with shaking. Cell suspensions were distributed into a 96-well v-bottom plate and incubated with the above-described VHH/antibody mixture for 1 hour on ice while shaking. VHH binding to cells was detected with streptavidin R-PE (Invitrogen, cat. #.SA10044) at 1:400 dilution (0.18 μg/ml) in FACS buffer, incubated for 30 minutes on ice with shaking and protection from light. The cells were acquired by flow cytometry. The data was analysed using FloJo V10 and GraphPad Prism. The EC50 values can be found in.
row,Binder,EC50 [nM]
1,B8,1.2
2,B9,1.6
3,B10,0.41
4,B11,2.3

# Biological target: Human FAP (Acro), recombinant protein (human, UniProt Q12884 26-760)
# Assay: SPR (Carterra LSA), antibody captured by anti-human Fc, FAP as analyte
# Method: (§1) Binding of anti-FAP antibodies to human and cynomolgus FAP was investigated by Surface Plasmon Resonance (SPR) on Carterra LSA. An EC30M chip was used to capture the test antibodies. The chip was activated for bioconjugation using EDC and sNHS in MES pH 5.5 to prepare the chip for amine coupling. Goat anti-human IgG Fc antibody was then captured to the chip via incubation for 10 minutes. Excess conjugation sites were quenched with 1M Ethanolamine pH 8. To measure monovalent binding kinetics, antibodies were printed/spotted onto the chip and allowed to bind to the goat antibody, followed by subsequent washing. After the preparation, the printed chip was exposed to repeated rounds of association and dissociation with increasing analyte concentrations. In this work, recombinant proteins (Human FAP (Acro) or cyno FAP His (Acro)) were serially diluted across a range starting at 1500 nM with 3-fold dilutions and 10 points. The curves were fitted to global fit in a 1:1 binding model to obtain KD values. The binding affinity to both human and cynomolgus FAP is reported in.
row,Binder,Kd [nM]
1,B4,0.047
2,B5,0.033
3,B6,0.04
4,B7,0.023

# Biological target: T3, cyno FAP His (Acro), recombinant protein (cynomolgus (Macaca fascicularis), UniProt Q12884 26-760 (human entry))
# T3 construct: bought protein used as analyte on Carterra LSA
# Assay: as above
# Method: as §1
row,Binder,Kd [nM]
1,B4,0.028
2,B5,0.03
3,B6,0.051
4,B7,0.021

# Biological target: T4, human recombinant LTBR fused on human Fc (SinoBiological, cat. #10581-H02H) (human, UniProt P36941 31-227)
# T4 construct: bought protein; also called human LTBR human IgG1 Fc chimera protein; not shown: human IgG1 Fc
# Assay: SPR (Biacore T200), LTBR-Fc on CM5 chip, periplasmic extract as analyte
# Method: (§2) To confirm species cross-reactivity, either human or cynomolgus recombinant LTBR-fused on human Fc (SinoBiological, cat. #10581-H02H and 90101-C02H) were immobilised on CM5 sensor chips (cat. #CFJB 334). 1:5 dilutions of crude periplasmic extracts of clones expressing VHHs were injected at 30 μl/min for 2 min in HBS-EP pH 7.4 buffer to allow for binding to chip-bound antigen. Next, an HBS-EP pH7.4 buffer without VHHs was injected for 5 minutes at the same flow rate to enable spontaneous dissociation of bound VHHs. Surface regeneration was done with 10 ul of 1 mM Glycine pH 1.5/1 M NaCl injected twice between samples. From the sensorgrams obtained on a BiacoreT200 machine, koff values were calculated by fitting a 1:1 interaction model (Langmuir model) using Insight Evaluation Software (Biacore). Based on this analysis, four clones were selected for further evaluation, and the results are included in.
# T4 sequence (P36941 31-227 limits assumed): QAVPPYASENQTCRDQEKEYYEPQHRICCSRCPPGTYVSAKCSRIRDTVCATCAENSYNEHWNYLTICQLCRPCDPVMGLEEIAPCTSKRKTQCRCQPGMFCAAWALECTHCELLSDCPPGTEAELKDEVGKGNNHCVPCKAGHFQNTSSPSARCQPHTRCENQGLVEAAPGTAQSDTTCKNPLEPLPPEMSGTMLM
row,Binder,koff [s⁻¹]
1,B8,0.0038
2,B9,0.00069
3,B10,0.0008
4,B11,0.0018

# Biological target: T5, cynomolgus recombinant LTBR fused on human Fc (SinoBiological, cat. #90101-C02H) (cynomolgus (Macaca fascicularis), UniProt P36941 31-227 (human entry))
# T5 construct: bought protein
# Assay: as above
# Method: as §2
# T5 sequence (P36941 other isoform, or with tags, fused parts or gaps C02H C02H limits assumed): as the sequence (P36941 31-227 limits assumed) above, with A2V, A7G, Q24R, I45S, N163D, K181R, L184S, P186S counted along it
row,Binder,koff [s⁻¹]
1,B8,0.0031
2,B9,0.0026
3,B10,0.0014
4,B11,0.00097
